Reference: article PMC9482650, “Quantitative fragmentomics allow affinity mapping of interactomes” (Nature Communications, 2022)

Experiments:
Assay in all cases: holdup assay
Set-up in all cases: key: below the threshold = too weak to quantify, mostly under pKd 3.1 to 4
PTPN13_2, Q12923 = molecular target: PTPN13_2, Q12923
PARD3B_2, Q8TEW8 = molecular target: PARD3B_2, Q8TEW8
CNKSR1, Q969H4 = molecular target: T1, CNKSR1, Q969H4
T1 sequence (Q969H4 191-295, limits assumed, looked up): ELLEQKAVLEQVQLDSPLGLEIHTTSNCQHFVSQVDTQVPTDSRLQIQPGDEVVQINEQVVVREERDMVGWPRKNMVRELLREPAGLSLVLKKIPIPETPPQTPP

TJP3_2, O95049 = molecular target: T2, TJP3_2, O95049
T2 sequence (O95049 190-282, limits assumed, looked up): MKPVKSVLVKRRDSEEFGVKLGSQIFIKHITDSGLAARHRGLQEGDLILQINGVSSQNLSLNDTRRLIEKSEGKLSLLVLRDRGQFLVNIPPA

PREX2_2, Q70Z35 = molecular target: T3, PREX2_2, Q70Z35
T3 sequence (Q70Z35 672-764, limits assumed, looked up): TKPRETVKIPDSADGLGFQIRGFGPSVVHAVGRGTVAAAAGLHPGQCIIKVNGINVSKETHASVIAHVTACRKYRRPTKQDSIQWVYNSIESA

MAGI2_1, Q86UL8 = molecular target: T4, MAGI2_1, Q86UL8
T4 sequence (Q86UL8 12-111, limits assumed, looked up): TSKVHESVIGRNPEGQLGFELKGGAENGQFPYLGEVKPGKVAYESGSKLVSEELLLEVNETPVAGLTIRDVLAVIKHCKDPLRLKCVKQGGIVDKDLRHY

MAGI3_3, Q5TCQ9 = molecular target: MAGI3_3, Q5TCQ9
RGS12, O14924 = molecular target: T5, RGS12, O14924
T5 sequence (O14924 17-108, limits assumed, looked up): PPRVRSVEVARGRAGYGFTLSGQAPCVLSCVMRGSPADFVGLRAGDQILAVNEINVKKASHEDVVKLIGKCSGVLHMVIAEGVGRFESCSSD

MAGIX, Q9H6Y5 = molecular target: MAGIX, Q9H6Y5
MPP5, Q8N3R9 = molecular target: T6, MPP5, Q8N3R9
T6 sequence (Q8N3R9 251-346, limits assumed, looked up): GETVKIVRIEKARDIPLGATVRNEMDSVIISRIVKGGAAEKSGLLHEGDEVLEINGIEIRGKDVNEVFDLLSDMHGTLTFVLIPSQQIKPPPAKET

NHERF1_2, O14745 = molecular target: T7, NHERF1_2, O14745
T7 sequence (O14745 149-244, limits assumed, looked up): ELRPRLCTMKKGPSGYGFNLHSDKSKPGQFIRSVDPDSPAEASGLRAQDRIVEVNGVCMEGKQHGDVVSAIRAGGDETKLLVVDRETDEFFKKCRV

NHERF1_1, O14745 = molecular target: T8, NHERF1_1, O14745
T8 sequence (O14745 9-104, limits assumed, looked up): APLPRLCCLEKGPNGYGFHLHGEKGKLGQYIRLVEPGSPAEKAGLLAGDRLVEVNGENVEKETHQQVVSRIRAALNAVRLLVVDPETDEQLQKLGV

AHNAK2, Q8IVF2 = molecular target: AHNAK2, Q8IVF2
SDCBP_1, O00560 = molecular target: SDCBP_1, O00560
NHERF3_2, Q5T2W1 = molecular target: T9, NHERF3_2, Q5T2W1
T9 sequence (Q5T2W1 129-225, limits assumed, looked up): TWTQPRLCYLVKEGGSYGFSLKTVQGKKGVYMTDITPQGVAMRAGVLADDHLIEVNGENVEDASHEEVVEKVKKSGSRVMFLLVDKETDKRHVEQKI

MAST3, O60307 = molecular target: MAST3, O60307
MAGI3_5, Q5TCQ9 = molecular target: MAGI3_5, Q5TCQ9
PTPN13_4, Q12923 = molecular target: T10, PTPN13_4, Q12923
T10 sequence (Q12923 1783-1878, limits assumed, looked up): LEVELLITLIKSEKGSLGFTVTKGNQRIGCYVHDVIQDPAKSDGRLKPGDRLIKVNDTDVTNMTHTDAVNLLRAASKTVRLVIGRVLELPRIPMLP

PARD6B, Q9BYG5 = molecular target: T11, PARD6B, Q9BYG5
T11 sequence (Q9BYG5 152-260, limits assumed, looked up): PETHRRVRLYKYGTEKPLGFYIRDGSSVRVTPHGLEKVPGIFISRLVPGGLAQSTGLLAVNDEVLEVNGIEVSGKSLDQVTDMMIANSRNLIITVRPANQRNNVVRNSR

PTPN13_5, Q12923 = molecular target: T12, PTPN13_5, Q12923
T12 sequence (Q12923 1877-1975, limits assumed, looked up): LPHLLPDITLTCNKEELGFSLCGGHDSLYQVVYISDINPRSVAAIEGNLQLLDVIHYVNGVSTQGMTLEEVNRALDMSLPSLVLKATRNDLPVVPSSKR

MPP1, Q00013 = molecular target: T13, MPP1, Q00013
T13 sequence (Q00013 66-162, limits assumed, looked up): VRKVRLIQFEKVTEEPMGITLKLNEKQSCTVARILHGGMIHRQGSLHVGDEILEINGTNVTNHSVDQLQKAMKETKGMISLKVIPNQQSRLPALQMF

PARD6G, Q9BYG4 = molecular target: T14, PARD6G, Q9BYG4
T14 sequence (Q9BYG4 153-261, limits assumed, looked up): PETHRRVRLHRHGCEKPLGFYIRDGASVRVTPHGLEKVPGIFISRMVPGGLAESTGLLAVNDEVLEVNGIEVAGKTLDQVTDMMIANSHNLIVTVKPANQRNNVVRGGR

[1] = modified: phospho on S at position -3 from the C-terminal residue
[2] = plain residues with an end cap or a label only (N-terminal biotin on a linker: (peg)3)
[3] = modified: acetyl on K at position -1 from the C-terminal residue

Chain of MAGI3_3, Q5TCQ9 (Q5TCQ9 572-655): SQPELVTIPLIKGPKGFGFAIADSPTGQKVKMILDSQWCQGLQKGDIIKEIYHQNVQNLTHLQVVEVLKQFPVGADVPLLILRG
Chain of MAST3, O60307 (O60307 945-1048): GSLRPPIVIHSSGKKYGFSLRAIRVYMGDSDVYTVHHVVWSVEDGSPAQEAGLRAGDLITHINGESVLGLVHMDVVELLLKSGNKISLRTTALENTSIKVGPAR
Chain of MAGIX, Q9H6Y5 (Q9H6Y5 118-211): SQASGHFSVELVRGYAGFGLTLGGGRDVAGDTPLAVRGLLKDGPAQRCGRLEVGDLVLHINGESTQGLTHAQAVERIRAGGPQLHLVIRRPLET
Chain of PTPN13_2, Q12923 (Q12923 1363-1462): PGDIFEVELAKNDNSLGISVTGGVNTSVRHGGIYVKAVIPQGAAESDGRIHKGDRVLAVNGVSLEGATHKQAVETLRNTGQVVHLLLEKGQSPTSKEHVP
Chain of MAGI3_5, Q5TCQ9 (Q5TCQ9 847-941): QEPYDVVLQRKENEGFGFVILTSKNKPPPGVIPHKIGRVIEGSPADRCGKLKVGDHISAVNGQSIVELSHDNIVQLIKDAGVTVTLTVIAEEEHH
Chain of PARD3B_2, Q8TEW8 (Q8TEW8 376-471): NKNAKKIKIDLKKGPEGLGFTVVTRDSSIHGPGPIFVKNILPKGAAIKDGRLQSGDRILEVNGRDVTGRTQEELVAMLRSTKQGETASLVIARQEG
Chain of AHNAK2, Q8IVF2 (Q8IVF2 108-193): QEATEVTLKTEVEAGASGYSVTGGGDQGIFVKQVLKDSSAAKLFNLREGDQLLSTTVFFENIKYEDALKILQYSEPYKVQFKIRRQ
Chain of SDCBP_1, O00560 (O00560 111-198): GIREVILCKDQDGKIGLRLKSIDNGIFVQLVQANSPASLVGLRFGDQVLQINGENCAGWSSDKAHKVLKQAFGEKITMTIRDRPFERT

RRVRKLPSTTL [RPS6KA1_-3P, Q15418] was tested, and the pKd (PTPN13_2, Q12923; [1]) was “below the threshold”, the pKd (PARD3B_2, Q8TEW8; [1]) was “below the threshold” and the pKd (CNKSR1, Q969H4; [1]) was 3.49. For the same binder, the pKd (TJP3_2, O95049; [1]) was “below the threshold”, the pKd (PREX2_2, Q70Z35; [1]) was “below the threshold” and the pKd (MAGI2_1, Q86UL8; [1]) was “below the threshold”. The pKd (MAGI3_3, Q5TCQ9; [1]) was “below the threshold”, the pKd (RGS12, O14924; [1]) was “below the threshold” and the pKd (MAGIX, Q9H6Y5; [1]) was “below the threshold”. For the same binder, the pKd (MPP5, Q8N3R9; [1]) was “below the threshold”, the pKd (NHERF1_2, O14745; [1]) was “below the threshold” and the pKd (NHERF1_1, O14745; [1]) was “below the threshold”. For the same binder, the pKd (AHNAK2, Q8IVF2; [1]) was 3.54, the pKd (SDCBP_1, O00560; [1]) was “below the threshold” and the pKd (NHERF3_2, Q5T2W1; [1]) was “below the threshold”. For the same binder, the pKd (MAST3, O60307; [1]) was “below the threshold”, the pKd (MAGI3_5, Q5TCQ9; [1]) was “below the threshold” and the pKd (PTPN13_4, Q12923; [1]) was “below the threshold”. For the same binder, the pKd (PARD6B, Q9BYG5; [1]) was “below the threshold”, the pKd (PTPN13_5, Q12923; [1]) was “below the threshold” and the pKd (MPP1, Q00013; [1]) was “below the threshold”. The pKd (PARD6G, Q9BYG4; [1]) was “below the threshold”.

With YDEPTTTTSVPL [SARS-Cov2-3a, P0DTC3] the pKd (PTPN13_2, Q12923; [2]) was “below the threshold”, the pKd (PARD3B_2, Q8TEW8; [2]) was “below the threshold” and the pKd (CNKSR1, Q969H4; [2]) was “below the threshold”. For the same binder, the pKd (TJP3_2, O95049; [2]) was “below the threshold”, the pKd (PREX2_2, Q70Z35; [2]) was “below the threshold” and the pKd (MAGI2_1, Q86UL8; [2]) was “below the threshold”. The pKd (MAGI3_3, Q5TCQ9; [2]) was “below the threshold”, the pKd (RGS12, O14924; [2]) was “below the threshold” and the pKd (MAGIX, Q9H6Y5; [2]) was “below the threshold”. The pKd (MPP5, Q8N3R9; [2]) was “below the threshold”, the pKd (NHERF1_2, O14745; [2]) was “below the threshold” and the pKd (NHERF1_1, O14745; [2]) was “below the threshold”. The pKd (AHNAK2, Q8IVF2; [2]) was “below the threshold”, the pKd (SDCBP_1, O00560; [2]) was “below the threshold” and the pKd (NHERF3_2, Q5T2W1; [2]) was “below the threshold”. The pKd (MAST3, O60307; [2]) was “below the threshold”, the pKd (MAGI3_5, Q5TCQ9; [2]) was “below the threshold” and the pKd (PTPN13_4, Q12923; [2]) was “below the threshold”. The pKd (PARD6B, Q9BYG5; [2]) was “below the threshold”, the pKd (PTPN13_5, Q12923; [2]) was “below the threshold” and the pKd (MPP1, Q00013; [2]) was “below the threshold”. The pKd (PARD6G, Q9BYG4; [2]) was “below the threshold”.

DEDQHTQITKV [PTEN_Ac, P60484] was tested, and the pKd (PTPN13_2, Q12923; [3]) was “below the threshold”, the pKd (PARD3B_2, Q8TEW8; [3]) was “below the threshold” and the pKd (CNKSR1, Q969H4; [3]) was 3.66. The pKd (TJP3_2, O95049; [3]) was “below the threshold”, the pKd (PREX2_2, Q70Z35; [3]) was “below the threshold” and the pKd (MAGI2_1, Q86UL8; [3]) was “below the threshold”. For the same binder, the pKd (MAGI3_3, Q5TCQ9; [3]) was “below the threshold”, the pKd (RGS12, O14924; [3]) was “below the threshold” and the pKd (MAGIX, Q9H6Y5; [3]) was “below the threshold”. The pKd (MPP5, Q8N3R9; [3]) was “below the threshold”, the pKd (NHERF1_2, O14745; [3]) was “below the threshold” and the pKd (NHERF1_1, O14745; [3]) was 4.85. The pKd (AHNAK2, Q8IVF2; [3]) was “below the threshold”, the pKd (SDCBP_1, O00560; [3]) was “below the threshold” and the pKd (NHERF3_2, Q5T2W1; [3]) was 3.61. The pKd (MAST3, O60307; [3]) was 4.06, the pKd (MAGI3_5, Q5TCQ9; [3]) was 3.97 and the pKd (PTPN13_4, Q12923; [3]) was 4.96. The pKd (PARD6B, Q9BYG5; [3]) was “below the threshold”, the pKd (PTPN13_5, Q12923; [3]) was “below the threshold” and the pKd (MPP1, Q00013; [3]) was “below the threshold”. For the same binder, the pKd (PARD6G, Q9BYG4; [3]) was “below the threshold”.
